Measurements published in PMC2660348.

Experiments:
[1] = target: T1, Zur (FurB) (Mycobacterium smegmatis) (UniProt A0R0S1); test: EMSA
T1 sequence: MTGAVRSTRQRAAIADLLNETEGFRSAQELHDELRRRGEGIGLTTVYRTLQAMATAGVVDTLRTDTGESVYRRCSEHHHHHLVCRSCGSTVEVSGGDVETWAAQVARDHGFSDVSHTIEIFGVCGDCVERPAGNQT

[2] = target: T2, IdeR (Mycobacterium smegmatis) (UniProt A0QVZ3); test: EMSA
T2 sequence: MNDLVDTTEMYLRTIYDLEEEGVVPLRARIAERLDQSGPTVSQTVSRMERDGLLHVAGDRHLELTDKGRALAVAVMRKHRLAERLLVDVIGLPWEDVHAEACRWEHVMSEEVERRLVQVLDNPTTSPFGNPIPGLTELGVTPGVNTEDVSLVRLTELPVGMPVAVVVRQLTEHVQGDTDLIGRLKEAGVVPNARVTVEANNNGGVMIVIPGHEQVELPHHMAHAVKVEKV

Sequence: CGGGATCCCGCAACACCCTGGTCAGTGCCGCCCGCGTCTGACGGCGCACCGTTCGCGCTGCCGGCACCCCGGGCTCCATAATGAAAATCATGTTCAGTAAGCTACACTCTGCATATCGGGCTACCAACGAAATGGAGTATCGGTCATGATCTTGCCAGCCGTGCCTAAAAGCTTGGCCGCAGGGCCGAGTCGATTGGTCGCGGTCGCCTCGACAGTTAGCTTATGCAATGCTAACTTCGGGGCAAAGTTCAGGCGGATCGGCCGATGGCGGGCGTAGGTGAAGGAGACAGCGGGTACCCG (double strand) [rv0282 upstream region (pr1)]
- binding [1]: binds
- binding [2]: binds
